According to PMC11348030, “mTORC1 phosphorylates and stabilizes LST2 to negatively regulate EGFR” (Proceedings of the National Academy of Sciences of the …, 2024):
Where no end group is shown, it is not given here. The star is where a group is joined. FITC = O=C1OC2(c3ccc(O)cc3Oc3cc(O)ccc32)c2ccc(NC(=S)*)cc21

Tests used:
[1] = biological target: T1, regulatory-associated protein of mTOR (RAPTOR) (UniProt Q8N122 1-1335); assay: fluorescence polarisation; fluorescence anisotropy; purified RAPTOR with N-terminally FITC-labeled synthetic LST2 TOS peptides; N = 3; settings: both partners purified
T1 construct: RAPTOR, regulatory-associated protein of mTOR; purified protein; Construct, host and tags are in SI Appendix, Material and Methods; In the cryo-EM rows RAPTOR stood as a subunit of mTORC1; source: purified

[2] = biological target: T1, regulatory-associated protein of mTOR …; assay: co-IP; coimmunoprecipitation with purified RAPTOR and purified full-length LST2 (WT or F401A); blot quantified, N = 3; settings: both partners purified

T1 sequence (Q8N122 whole entry): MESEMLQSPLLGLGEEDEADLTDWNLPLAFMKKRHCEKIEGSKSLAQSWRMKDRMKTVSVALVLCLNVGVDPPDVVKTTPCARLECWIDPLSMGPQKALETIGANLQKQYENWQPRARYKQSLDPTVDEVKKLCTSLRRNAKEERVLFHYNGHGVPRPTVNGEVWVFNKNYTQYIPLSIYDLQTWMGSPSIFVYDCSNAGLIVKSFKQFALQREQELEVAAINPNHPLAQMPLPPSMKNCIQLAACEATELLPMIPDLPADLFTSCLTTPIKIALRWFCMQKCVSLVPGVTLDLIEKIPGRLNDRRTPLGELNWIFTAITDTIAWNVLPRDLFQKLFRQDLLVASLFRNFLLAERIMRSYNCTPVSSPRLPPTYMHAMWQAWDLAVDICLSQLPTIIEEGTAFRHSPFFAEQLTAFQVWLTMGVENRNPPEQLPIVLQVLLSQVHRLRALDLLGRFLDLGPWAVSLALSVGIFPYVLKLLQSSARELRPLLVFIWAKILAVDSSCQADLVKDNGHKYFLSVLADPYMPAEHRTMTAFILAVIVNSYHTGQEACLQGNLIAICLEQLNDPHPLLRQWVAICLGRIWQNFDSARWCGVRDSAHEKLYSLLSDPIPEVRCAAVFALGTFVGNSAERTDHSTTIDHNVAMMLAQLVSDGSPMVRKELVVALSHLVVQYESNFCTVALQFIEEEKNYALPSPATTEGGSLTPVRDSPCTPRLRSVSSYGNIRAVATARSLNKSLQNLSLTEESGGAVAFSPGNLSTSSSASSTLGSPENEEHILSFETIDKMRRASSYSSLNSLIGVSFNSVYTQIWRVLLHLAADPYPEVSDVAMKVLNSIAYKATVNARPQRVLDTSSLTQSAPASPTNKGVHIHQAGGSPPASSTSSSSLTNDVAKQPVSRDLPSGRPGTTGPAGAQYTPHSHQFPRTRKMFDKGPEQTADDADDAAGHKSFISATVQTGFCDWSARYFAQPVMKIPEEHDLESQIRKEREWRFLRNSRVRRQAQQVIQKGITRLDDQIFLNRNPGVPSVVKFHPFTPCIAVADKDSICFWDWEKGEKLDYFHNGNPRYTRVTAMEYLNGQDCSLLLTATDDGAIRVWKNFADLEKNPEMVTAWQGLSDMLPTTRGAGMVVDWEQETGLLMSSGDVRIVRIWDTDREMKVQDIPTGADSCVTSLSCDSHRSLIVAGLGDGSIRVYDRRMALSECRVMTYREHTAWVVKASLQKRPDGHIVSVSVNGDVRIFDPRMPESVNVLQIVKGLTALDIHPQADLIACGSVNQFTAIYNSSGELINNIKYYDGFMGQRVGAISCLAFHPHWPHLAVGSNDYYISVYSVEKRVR

Kd [1] | fold reduction of binding against LST2-WT [2] | Binder
330 nM |  | {FITC}-DEEERVFFMDDVE (peptide, UniProt Q9HCC9 395-407, looked up, also called LST2 TOS peptide WT; FITC-labeled peptide; source: synthetic peptide) [FITC-labeled LST2 TOS peptide including flanking residues (amino acids 395 to 407)]
 | 9 fold | full-length LST2 F401A (natural protein, UniProt Q9HCC9 1-887, looked up, LST2 (ZFYVE28), full length, with F401A in the TOS motif; Tags and host in SI Appendix; also called TOS-deficient LST2-F401A; source: purified) MMNRFRKWLYKPKRSDPQLLARFYYADEELNQVAAELDSLDGRKDPQRCTLLVSQFRSCQDNVLNIINQIMDECIPQDRAPRDFCVKFPEEIRHDNLAGQLWFGAECLAAGSIIMNRELESMAMRPLAKELTRSLEDVRGALRDQALRDLNTYTEKMREALRHFDVLFAEFELSYVSAMVPVKSPREYYVQQEVIVLFCETVERALDFGYLTQDMIDDYEPALMFSIPRLAIVCGLVVYADGPLNLDRKVEDMSELFRPFHTLLRKIRDLLQTLTEEELHTLERNLCISQDVEFPIRADVQGPAALAPALSAPLPPEGPLSAKAKDPDAELACSMQYDDQELEQLSRMVHRAGDEMSSLLSPPIACQSPAHRPGAEGSPGGEASPGRPRLRSGSDEEERVAFMDDVEGTAEALARPESPAGPFGWAGSTWADPQEKGQGGPGGAAGISLPASEKEEDLSNNNLEAEGTDGASLAGTSSCSCLDSRLHLDGWEVGADDAETAEMIAHRTGGMKLSATVIFNPKSPTSLDSAVATQEAASEPVAEGMDGGPHKLSTGATNCLLHSCVCCGSCGDSREDVVERLREKCSPGGVIGASYAAGLAKASDRAPERQEEAPPPSEDASNGREPKAPTSDKCLPHTSGSQVDTASGLQGEAGVAGQQEPEARELHAGSPSAHEAPQALSGSSSSTAGSCSSDKMGPEAAPAATHAAPQATREKIRSRFHGSHDLIHRLFVCISGVADQLQTNYASDLRSILKTLFEVMATKPETDDKEKLRKVTQTLRSAALEDCALCQETLSSSELAAKTRDGDFEDPPEWVPDEACGFCTACKAPFTVIRRKHHCRSCGKIFCSRCSSHSAPLPRYGQVKPVRVCTHCYMFHVTPFYSDKAGL
